{
  "source": "patent US20200317768A1",
  "about": "(published 2020)",
  "test_in_all_cases": "SPR 25C; FcgR bound per captured antibody, relative to parent B3",
  "key": {"[1]": {"molecular_target": "T1, human FcγRIIaH extracellular domain, C-terminal His-tag (human, UniProt P12318 34-217)", "T1 construct": "also called human FcγRIIa (type H); FcgRIIaH", "T1 sequence": "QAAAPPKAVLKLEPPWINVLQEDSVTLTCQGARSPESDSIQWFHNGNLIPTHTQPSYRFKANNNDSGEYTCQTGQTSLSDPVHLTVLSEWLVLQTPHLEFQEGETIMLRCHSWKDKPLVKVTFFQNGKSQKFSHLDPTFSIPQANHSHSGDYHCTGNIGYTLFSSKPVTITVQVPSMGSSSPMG", "method": "(§1) These Fc variants are referred to as B3 variants. B3 variants were expressed and the binding of protein-A purified antibodies to each FcγR (FcγRIIa type H. FcγRIIa type R, FcγRIIb, and FcγRIIIaF) was comprehensively evaluated as follows. Analysis of interaction between each altered antibody and the Fcγ receptor prepared as mentioned above was carried out using BIACORE® T100 (GE Healthcare), BIACORE® T200 (GE Healthcare), BIACORE® A100, or BIACORE® 4000. HBS-EP+(GE Healthcare) was used as the running buffer, and the measurement temperature was set to 25° C. Chips produced by immobilizing Protein A (Thermo Scientific), Protein A/G (Thermo Scientific), or Protein L (ACTIGEN or BioVision) by the amine coupling method to a Series S sensor Chip CM5 or CM4 (GE Healthcare) were used. After capturing of antibodies of interest onto these sensor chips, an Fcγ receptor diluted with the running buffer was allowed to interact, the amount bound to an antibody was measured. However, since the amount of Fcγ receptor bound depends on the amount of the captured antibodies, the amount of Fcγ receptor bound was divided by the amount of each antibody captured to obtain corrected values, and these values were compared. Furthermore, antibodies captured onto the chips were washed by 10 mM glycine-HCl pH1.5, and the chips were regenerated and used repeatedly. […] The value obtained by multiplying this value by 100 was used as an indicator of the relative FcγR-binding activity of each variant."}, "[2]": {"molecular_target": "T2, human FcγRIIb extracellular domain, C-terminal His-tag (human, UniProt P31994 43-217)", "T2 construct": "also called FcgRIIb (human)", "T2 sequence": "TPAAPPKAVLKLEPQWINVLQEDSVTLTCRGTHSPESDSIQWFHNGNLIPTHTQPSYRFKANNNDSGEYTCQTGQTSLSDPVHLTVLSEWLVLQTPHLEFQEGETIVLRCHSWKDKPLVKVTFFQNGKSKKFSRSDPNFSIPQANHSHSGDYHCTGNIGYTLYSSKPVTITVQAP", "method": "as §1"}, "[3]": {"molecular_target": "T3, human FcγRIIaR extracellular domain, C-terminal His-tag (human, UniProt P12318 34-217)", "T3 construct": "also called human FcγRIIa (type R); FcgRIIaR", "T3 chain": "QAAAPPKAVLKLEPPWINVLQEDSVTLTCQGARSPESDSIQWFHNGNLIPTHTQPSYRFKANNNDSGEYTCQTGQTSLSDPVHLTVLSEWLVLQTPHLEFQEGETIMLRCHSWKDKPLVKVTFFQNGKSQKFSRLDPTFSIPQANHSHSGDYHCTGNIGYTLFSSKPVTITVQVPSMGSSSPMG", "method": "as §1"}},
  "data": [
    {"binder": "GpH7-B3 variant S239P/GpL16-k0 (antibody, human IgG1, kappa) heavy: not shown light: DIVMTQSPLSLPVTPGEPASISCQASESLVHSNRNTYLHWYLQKPGQSPQLLIYKVSNRFSGVPDRFSGSGSGTDFTLKISRVEAEDVGVYYCSQNTHVPPTFGQGTKVEIERTVAAPSVFIFPPSDEQLKSGTASVVCLLNNFYPREAKVQWKVDNALQSGNSQESVTEQDSKDSTYSLSSTLTLSKADYEKHKVYACEVTHQGLSSPVTKSFNRGEC", "values": [
      {"measurement": "Binding to human FcgRs (parent B3 = 100)", "setting": "[1]", "value": 49, "unit": "parent B3 = 100"},
      {"measurement": "Binding to human FcgRs (parent B3 = 100)", "setting": "[2]", "value": 61, "unit": "parent B3 = 100"}
    ]},
    {"binder": "GpH7-B3 variant P271D/GpL16-k0 (antibody, human IgG1, kappa) heavy: not shown light: DIVMTQSPLSLPVTPGEPASISCQASESLVHSNRNTYLHWYLQKPGQSPQLLIYKVSNRFSGVPDRFSGSGSGTDFTLKISRVEAEDVGVYYCSQNTHVPPTFGQGTKVEIERTVAAPSVFIFPPSDEQLKSGTASVVCLLNNFYPREAKVQWKVDNALQSGNSQESVTEQDSKDSTYSLSSTLTLSKADYEKHKVYACEVTHQGLSSPVTKSFNRGEC", "values": [
      {"measurement": "Binding to human FcgRs (parent B3 = 100)", "setting": "[3]", "value": 55, "unit": "parent B3 = 100"},
      {"measurement": "Binding to human FcgRs (parent B3 = 100)", "setting": "[2]", "value": 110, "unit": "parent B3 = 100"}
    ]},
    {"binder": "GpH7-B3 variant V266F/GpL16-k0 (antibody, human IgG1, kappa) heavy: not shown light: DIVMTQSPLSLPVTPGEPASISCQASESLVHSNRNTYLHWYLQKPGQSPQLLIYKVSNRFSGVPDRFSGSGSGTDFTLKISRVEAEDVGVYYCSQNTHVPPTFGQGTKVEIERTVAAPSVFIFPPSDEQLKSGTASVVCLLNNFYPREAKVQWKVDNALQSGNSQESVTEQDSKDSTYSLSSTLTLSKADYEKHKVYACEVTHQGLSSPVTKSFNRGEC", "values": [
      {"measurement": "Binding to human FcgRs (parent B3 = 100)", "setting": "[2]", "value": 88, "unit": "parent B3 = 100"}
    ]}
  ]
}
